Experimental data: US12534541B2, “Anti-PTK7 antibody and uses thereof” (MABCARE THERAPEUTICS, priority 2023, dated 2026)

Columns and labels:
[1] = tested on: triple-negative breast cancer PDX LD1-2009-361918; assay type: in vivo; settings: NU/NU mice, i.v. 5 mg/kg, once a week, 2 doses, vs negative control
Description: 6-week-old NU/NU mice, female, weighing 18-21 g, were purchased from Beijing Vital River Laboratory Animal Technology Co., Ltd. The mice were subcutaneously inoculated with triple-negative breast cancer tumor mass (specimen no. 361918, obtained from Xi'an LIDE Biotech Co. Ltd.). […] After dosing, the tumor volume was measured twice a week using a vernier caliper and calculated according to the following formula: TV=(length*width^2)/2.

[2] = tested on: head and neck squamous cell carcinoma PDX LD1-0023-200615; assay: In vivo anti-tumor activity against human head and neck squamous cell carcinoma PDX LD1-0023-200615; settings: NU/NU mice, i.v. 5 mg/kg, once a week, 2 doses, vs negative control
Description: (§1) 6-week-old NU/NU mice, female, weighing 18-21 g, were purchased from Beijing Vital River Laboratory Animal Technology Co., Ltd. The mice were subcutaneously inoculated with head and neck squamous cell carcinoma tumor mass (specimen no. 200615, obtained from Xi'an LIDE Biotech Co. Ltd.). When the average tumor volume reached 150 mm^3, the antibody-drug conjugate Ab13-T1000-exatecan as prepared in Example 5 was administered intravenously at a dose of 10 mg/kg, the antibody-drug conjugate h6M24-vc0101 as prepared in Example 8 was administered intravenously at a dose of 5 mg/kg, and a negative control Vehicle group was set and administered intravenously with PBS at an equal dose, once a week for a total of 2 doses. After dosing, the tumor volume was measured twice a week using a vernier caliper and calculated according to the following formula: TV=(length*width^2)/2.

[3] = Size exclusion chromatography (SEC) for the degree of aggregation; assay type: physicochemical; settings: integral analysis, product after preparation
Description: (§2) Activated charcoal powder (30 mg of powder per ml of liquid) was then added to the collection solution, which was suspended for 2 h at room temperature, centrifuged, and sterilized using a 0.22 μm filter membrane, and the activated charcoal particles were removed at the same time. The resulting product was calculated by UV for its concentration and DAR value, detected by hydrophobic chromatography (HIC) for product homogeneity, and detected by size exclusion chromatography (SEC) for the degree of aggregation. The products were placed in a refrigerator at −80° C. for cryopreservation.
as §2, with “At the end of the reaction, the coupling reaction mixture was immediately desalted and exchanged with histidine-acetic acid/NaCl buffer using a desalting column. Activated” for “Activated”, “product was” for “products were”, “cryopreservation. […]” for “cryopreservation.”

[4] = tested on: esophageal squamous cell carcinoma PDX LD1-2015-361318; assay: In vivo anti-tumor activity against human esophageal squamous cell carcinoma PDX LD1-2015-361318; settings: NU/NU mice, i.v. 5 mg/kg, once a week, 2 doses, vs negative control
Description: as §1, with “esophageal” for “head and neck”, “361318,” for “200615,”

[5] = tested on: lung squamous cell carcinoma PDX LD1-0025-200615; assay: In vivo anti-tumor activity against human lung squamous cell carcinoma PDX LD1-0025-200615; settings: NU/NU mice, i.v. 5 mg/kg, once a week, 2 doses, vs negative control
Description: as §1, with “lung” for “head and neck”

[6] = tested on: cervical squamous cell carcinoma PDX LD1-0010-362343; assay: In vivo anti-tumor activity against human cervical squamous cell carcinoma PDX LD1-0010-362343; settings: NU/NU mice, i.v. 5 mg/kg, once a week, 2 doses, vs negative control
Description: as §1, with “cervical” for “head and neck”, “362343,” for “200615,”

OVCAR-3 cells = assay: In vivo anti-tumor activity against human ovarian cancer cell line OVCAR-3; settings: OVCAR-3 in NCG mice, i.v. 3 mg/kg or 5 mg/kg, 1 dose, vs negative control
Description: 6-week-old NCG mice, female, weighing 18-21 g, were purchased from Beijing Vital River Laboratory Animal Technology Co., Ltd. The mice were subcutaneously inoculated with OVCAR-3 cells (Human Ovarian Cancer Cells, ATCC, Catalog No. HTB-161). When the average tumor volume reached 150 mm^3, the antibody-drug conjugates Ab13-T1000-exatecan and h6M24-T1000-exatecan as prepared in Example 5 and the antibody-drug conjugate Ab13-vc0101 and h6M24-vc0101 as prepared in Example 8 were administered intravenously at a dose of 3 mg/kg or 5 mg/kg, respectively, and a negative control Vehicle group was set and administered intravenously with PBS at an equal dose, once a week for a total of 1 dose. After dosing, the tumor volume was measured twice a week using a vernier caliper and calculated according to the following formula: TV=(length*width^2)/2.

B1: h6M24-vc0101: control drug: h6M24 (cofetuzumab) linked to Aur0101 via mc-VC-PAB linker, DAR about 4 (conjugate, chains of the INN, looked up)
VH: QVQLVQSGPEVKKPGASVKVSCKASGYTFTDYAVHWVRQAPGKRLEWIGVISTYNDYTYNNQDFKGRVTMTRDTSASTAYMELSRLRSEDTAVYYCARGNSYFYALDYWGQGTSVTVSS
VL: EIVLTQSPATLSLSPGERATLSCRASESVDSYGKSFMHWYQQKPGQAPRLLIYRASNLESGIPARFSGSGSGTDFTLTISSLEPEDFAVYYCQQSNEDPWTFGGGTKLEIK
modifications: Aur0101 via mc-VC-PAB linker, DAR 4
With B1 the “tumor growth inhibition (tumor volume over time)” value [1] was “does not produce any tumor growth inhibitory effect”, the “tumor growth inhibition (tumor volume over time)” value [2] was “significantly inhibit tumor growth” and the percentage of aggregates [3] was 1.39%. For the same molecule, the “tumor growth inhibition (tumor volume over time)” value [4] was “partially inhibit tumor growth”, the “tumor growth inhibition (tumor volume over time)” value [5] was “partially inhibit tumor growth” and the “tumor growth inhibition (tumor volume over time)” value [6] was “significantly inhibit tumor growth”. For the same molecule, the “tumor growth inhibition (tumor volume over time)” value (OVCAR-3 cells) was “less effective in inhibiting tumor growth”.
